For assay [1], the target named is CD20 (human) (UniProt P11836). Briefly: cell-based or functional assay.
Assay [2] has as its target CD74 (human) (UniProt P04233). Kind of assay: cell-based or functional assay.

Chain of CD74 (human) (P04233 whole entry): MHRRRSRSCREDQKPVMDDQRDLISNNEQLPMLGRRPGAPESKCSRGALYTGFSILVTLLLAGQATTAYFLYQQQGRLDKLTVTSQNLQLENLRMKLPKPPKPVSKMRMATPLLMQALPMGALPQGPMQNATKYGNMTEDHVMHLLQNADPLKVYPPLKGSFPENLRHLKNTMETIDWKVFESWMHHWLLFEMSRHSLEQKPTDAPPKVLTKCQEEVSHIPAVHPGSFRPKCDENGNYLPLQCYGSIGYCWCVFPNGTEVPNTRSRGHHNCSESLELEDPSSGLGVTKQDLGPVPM
Chain of CD20 (human) (P11836 whole entry): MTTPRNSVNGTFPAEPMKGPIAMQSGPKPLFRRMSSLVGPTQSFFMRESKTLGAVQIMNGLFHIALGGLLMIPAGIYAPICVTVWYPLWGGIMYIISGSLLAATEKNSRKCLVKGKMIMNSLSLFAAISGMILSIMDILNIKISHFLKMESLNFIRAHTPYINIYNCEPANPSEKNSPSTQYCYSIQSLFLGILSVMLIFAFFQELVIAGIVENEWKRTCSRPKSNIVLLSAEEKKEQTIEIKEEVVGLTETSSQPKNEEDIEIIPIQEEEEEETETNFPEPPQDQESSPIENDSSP

In assay [1], “20-(74)-(74) bispecific hexavalent antibody (HexAb): CH3-AD2-IgG-veltuzumab with a pair of stabilized dimers of CH1-DDD2-Fab-milatuzumab (bispecific antibody)” returned an EC50 (nM), MTS cell proliferation assay, Daudi of 5.3 nM; an EC50 (nM), MTS cell proliferation assay, Granta-519 of 2 nM; an EC50 (nM), MTS cell proliferation assay, JeKo-1 of 3 nM; an EC50 (nM), MTS cell proliferation assay, Mino of 13.7 nM. Also, in assay [1], the EC50 (nM), MTS cell proliferation assay, Raji stood at 0.3 nM; the Percent inhibition (%) at 100 nM, MTS assay, Granta-519 is 55%; the Percent inhibition (%) at 100 nM, MTS assay, JeKo-1 stood at 70%; the Percent inhibition (%) at 100 nM, MTS assay, Mino turned out to be 80%. In assay [1], this substance displayed a Percent inhibition (%) at 100 nM, MTS assay, Raji of 50%; a homotypic adhesion (%), JeKo-1, 2 h, 10 nM of 90%; a homotypic adhesion (%), JeKo-1, 24 h, 10 nM of more than 95%. In assay [2], this substance showed an EC50 (nM), MTS cell proliferation assay, Daudi of 5.3 nM; an EC50 (nM), MTS cell proliferation assay, Granta-519 of 2 nM; an EC50 (nM), MTS cell proliferation assay, JeKo-1 of 3 nM; an EC50 (nM), MTS cell proliferation assay, Mino of 13.7 nM. In assay [2], the EC50 (nM), MTS cell proliferation assay, Raji turned out to be 0.3 nM; the EC50, MTS assay, in CLL lines WAC, MEC-1, ALL lines REH-1, MN60 and MM lines CAG, RPMI8226, KMS11, KMS12-BM, KMS12-PE was more than 100 nM; the Percent inhibition (%) at 100 nM, MTS assay, Granta-519 came out at 55%; the Percent inhibition (%) at 100 nM, MTS assay, JeKo-1 turned out to be 70%. Moreover, in assay [2], the Percent inhibition (%) at 100 nM, MTS assay, Mino was 80%; the Percent inhibition (%) at 100 nM, MTS assay, Raji is 50%; the homotypic adhesion (%), JeKo-1, 2 h, 10 nM amounted to 90%; the homotypic adhesion (%), JeKo-1, 24 h, 10 nM was more than 95%.
In the case of “74-(20)-(20) bispecific hexavalent antibody (HexAb): CH3-AD2-IgG-milatuzumab with a pair of stabilized dimers of CH1-DDD2-Fab-veltuzumab (bispecific antibody)”, in assay [1], the EC50 (nM), MTS cell proliferation assay, Daudi is 1.2 nM; the EC50 (nM), MTS cell proliferation assay, Granta-519 was 0.6 nM; the EC50 (nM), MTS cell proliferation assay, JeKo-1 was 2 nM; the EC50 (nM), MTS cell proliferation assay, Mino came to 1.2 nM. Also, in assay [1], the EC50 (nM), MTS cell proliferation assay, Raji worked out at 0.3 nM; the Percent inhibition (%) at 100 nM, MTS assay, Granta-519 came to 65%; the Percent inhibition (%) at 100 nM, MTS assay, JeKo-1 is 90%; the Percent inhibition (%) at 100 nM, MTS assay, Raji was 50%. Further, in assay [1], the homotypic adhesion (%), JeKo-1, 2 h, 10 nM was found to be 90% and the homotypic adhesion (%), JeKo-1, 24 h, 10 nM was more than 95%. In assay [2], the EC50 (nM), MTS cell proliferation assay, Daudi stood at 1.2 nM; the EC50 (nM), MTS cell proliferation assay, Granta-519 was determined as 0.6 nM; the EC50 (nM), MTS cell proliferation assay, JeKo-1 is 2 nM; the EC50 (nM), MTS cell proliferation assay, Mino came out at 1.2 nM. In addition, in assay [2], the EC50 (nM), MTS cell proliferation assay, Raji is 0.3 nM; the EC50, MTS assay, in CLL lines WAC, MEC-1, ALL lines REH-1, MN60 and MM lines CAG, RPMI8226, KMS11, KMS12-BM, KMS12-PE was more than 100 nM; the Percent inhibition (%) at 100 nM, MTS assay, Granta-519 was 65%; the Percent inhibition (%) at 100 nM, MTS assay, JeKo-1 stood at 90%. In assay [2], the Percent inhibition (%) at 100 nM, MTS assay, Mino came out at 100%; the Percent inhibition (%) at 100 nM, MTS assay, Raji came out at 50%; the homotypic adhesion (%), JeKo-1, 2 h, 10 nM turned out to be 90%; the homotypic adhesion (%), JeKo-1, 24 h, 10 nM is more than 95%.
